This note sets out measurements from patent publication US7320863B2, “Thyroid sodium/iodide symporter and nucleic acid encoding same” (Albert Einstein College of Medicine of Yeshiva University, priority 1996, dated 2008).

Substrate in this series: I
Nature of the series: cells, lysate or membranes. Conditions: other: initial velocity rates at 2 min, iodide 1.25 to 250 μM, oocytes 60 h after injection; 37.0 °C.

B1: rat sodium/iodide symporter (Rattus norvegicus) (protein)
chain: MEGAEAGARATFGAWDYGVFATMLLVSTGIGLWVGLARGGQRSADDFFTGGRQLAAVPVGLSLAASFMSAVQVLGVPAEAARYGLKFLWMCAGQLLNSLLTAFLFLPIFYRLGLTSTYQYLELRFSRAVRLCGTLQYLVATMLYTGIVIYAPALILNQVTGLDIWASLLSTGIICTLYTTVGGMKAVVWTDVFQVVVMLVGFWVILARGVILLGGPRNVLSLAQNHSRINLMDFDPDPRSRYTFWTFIVGGTLVWLSMYGVNQAQVQRYVACHTEGKAKLALLVNQLGLFLIVASAACCGIVMFVYYKDCDPLLTGRISAPDQYMPLLVLDIFEDLPGVPGLFLACAYSGTLSTASTSINAMAAVTVEDLIKPRMPGLAPRKLVFISKGLSFIYGSACLTVAALSSLLGGGVLQGSFTVMGVISGPLLGAFTLGMLLPACNTPGVLSGLAAGLAVSLWVAVGATLYPPGEQTMGVLPTSAAGCTNDSVLLGPPGATNASNGIPSSGMDTGRPALADTFYAISYLYYGALGTLTTMLCGALISYLTGPTKRSSLGPGLLWWDLARQTASVAPKEDTATLEESLVKGPEDIPAVTKKPPGLKPGAETHPLYLGHDVETNL
What is called Km is the substrate concentration at which the rate is half of its maximum. Turning to B1, the Km was found to be 36 µM.
